According to the supplement of paper PMC10899765:

Legend:
Details in all cases: 20 nM; 72 h
[1] = test system: MCF10A; assay: percent viability (nuclei count relative to siNT); higher = more viable cells
Description: (§1)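 After 72 h, cells were fixed and stained with Hoechst and anti-fibrillarin, and nucleoli per nucleus were counted with CellProfiler. Values are plate-adjusted percent effect for the one-nucleolus and 5+ nucleoli phenotypes, normalised to siNT (0%) and to the positive controls siNOL11 or siKIF11 (100%), as the mean of biological triplicates. Percent viability is the nuclei count relative to siNT.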

[2] = test system: MCF10A; assay: 5+ nucleoli phenotype percent effect (relative to siNT 0% and siKIF11 100%); higher = more cells with five or more nucleoli
Description: as §1

[3] = test system: MCF10A; assay: one-nucleolus phenotype percent effect (relative to siNT 0% and siNOL11 100%); higher = more cells with one nucleolus (ribosome biogenesis inhibition)
Description: as §1

Sequence | percent viability [1] | 5+ nucleoli phenotype percent effect [2] | one-nucleolus phenotype percent effect [3]
CUCUAGAGGGAAGCGCUUUCUG [hsa-miR-519b-5p] | 36.9% | -5.59% | 5.75%
UUUUGCGAUGUGUUCCUAAUAU [hsa-miR-450a-5p] | 65.3% | 13.7% | 3.94%
CACAAGGUAUUGGUAUUACCU [hsa-miR-624-3p] | 21.1% | -46.2% | 71%
ACCGUGCAAAGGUAGCAUA [hsa-miR-1973] | 119% | -30.8% | 2.66%
CAUCUUACCGGACAGUGCUGGA [hsa-miR-200a-5p] | 56% | -26% | 5.98%
UCUAUUCCCCACUCUCCCCAG [hsa-miR-6731-3p] | 32.5% | -13.6% | -0.0733%
UACUCAAAAAGCUGUCAGUCA [hsa-miR-888-5p] | 82.3% | 11.8% | -13.4%
ACCCCUGCCACUCACUGGCC [hsa-miR-6801-3p] | 62% | 1.82% | -4.08%
GUUUGCACGGGUGGGCCUUGUCU [hsa-miR-557] | 47.7% | -30.1% | 34.6%
UAACAUAAUAGUGUGGAUUGA [hsa-miR-4803] | 168% | 40.9% | -25%
AGAGAUGCCGCCUUGCUCCUU [hsa-miR-4708-5p] | 45.7% | -25.3% | 21%
UAGACCAUCUUUCUAGAGUAU [hsa-miR-6502-3p] | 102% | -0.273% | -0.125%
UUGGUGAGGACCCCAAGCUCGG [hsa-miR-7855-5p] | 7.91% | -27.6% | 73.9%
CAUCUUCCAGUACAGUGUUGGA [hsa-miR-141-5p] | 64.8% | -4.79% | -9.13%
CACUGUUUCACCACUGGCUCUU [hsa-miR-4676-3p] | 49.2% | 18.4% | -8.83%
ACAAGGUGUGCAUGCCUGACC [hsa-miR-4761-5p] | 18.1% | -24.8% | 53.7%
CUGGGAGGGGCUGGGUUUGGC [hsa-miR-6779-5p] | 36.8% | 2.1% | 10.8%
GUGUUGAAACAAUCUCUACUG [hsa-miR-653] | 169% | 38.1% | -22.2%
AACGGCAAUGACUUUUGUACCA [hsa-miR-548al] | 58.9% | -4.48% | -4.22%
GUGACAUCACAUAUACGGCAGC [hsa-miR-489] | 22.4% | -33.1% | 53.7%

Sequence | percent viability [1] | 5+ nucleoli phenotype percent effect [2] | one-nucleolus phenotype percent effect [3]
ACAGACUUGCUGUGAUGUUCA [hsa-miR-499b-5p] | 35.2% | -7.28% | 2.65%
UCGACCGGACCUCGACCGGCU [hsa-miR-1307-5p] | 78.8% | 13.2% | -17.3%
GUGAGGGCAUGCAGGCCUGGAUGGGG [hsa-miR-1226-5p] | 114% | 53.3% | -14.2%
CUGCAAAGGGAAGCCCUUUC [hsa-miR-518a-5p] | 32.4% | -45.8% | 60.3%
UGUGAUAUCAUGGUUCCUGGGA [hsa-miR-3689a-5p] | 37.9% | -5.22% | 6.87%
GUAUACACCUGAUAUGUGUAUG [hsa-miR-4789-5p] | 67.5% | 17.3% | -15.8%
UGGAAUGUAAAGAAGUAUGUAU [hsa-miR-1] | 38.5% | -15.8% | 8.45%
CAAAAGUAAUUGUGGAUUUUGU [hsa-miR-548n] | 137% | 52.2% | -23.6%
UGCCAACCGUCAGAGCCCAGA [hsa-miR-5189-3p] | 59.9% | -12% | -1.7%
UUGCAUAUGUAGGAUGUCCCAU [hsa-miR-448] | 75.6% | 34% | -2.74%
AGGAUGAGCAAAGAAAGUAGAUU [hsa-miR-1255a] | 128% | 55.6% | -24.4%
UGGUAGAGCUGAGGACA [hsa-miR-4451] | 16.3% | 9.42% | -7.47%
AGCCGCGGGGAUCGCCGAGGG [hsa-miR-3648] | 88.3% | 19.7% | -17.8%
AUGGAUAAGGCUUUGGCUU [hsa-miR-1261] | 50.3% | -12.9% | 24.4%
UACUUUUCUAGGUUGUUGGGG [hsa-miR-5003-3p] | 24.9% | -39.5% | 55.6%
UAAAUAGAGUAGGCAAAGGACA [hsa-miR-3121-3p] | 49.3% | 15.6% | -18%
UAGGACUGUGCUUGGCACAUAG [hsa-miR-3169] | 27.4% | 20% | 1.07%
UUGCUAAGUAGGCUGAGAUUGA [hsa-miR-4639-5p] | 22.7% | -11.6% | 11.8%
ACCUUGCCUUGCUGCCCGGGCC [hsa-miR-1915-5p] | 34.9% | -40.4% | 39.7%
AUCCCACCACUGCCACCAU [hsa-miR-1260b] | 30.7% | 18.9% | -10.3%

Sequence | percent viability [1] | 5+ nucleoli phenotype percent effect [2] | one-nucleolus phenotype percent effect [3]
GUGAAAUGUUUAGGACCACUAG [hsa-miR-203a] | 40.9% | 3.03% | 10.2%
AAGGGGGAAGGAAACAUGGAGA [hsa-miR-4716-3p] | 21.3% | -6.04% | 21.6%
AAAGUCUCGCUCUCUGCCCCUCA [hsa-miR-3184-3p] | 172% | 41.1% | -19.6%
GUUUGGACAUAGUGUGGCUGG [hsa-miR-7850-5p] | 115% | 49.1% | -32.7%
UAGGGGAAAAGUCCUGAUCCGG [hsa-miR-6783-5p] | 78.4% | 18.2% | -20.2%
GGAGACUGAUGAGUUCCCGGGA [hsa-miR-873-3p] | 106% | -5.61% | -6.55%
UUCCUUCUGUUGUCUGUGCAG [hsa-miR-6868-3p] | 28.1% | -19.2% | -3.76%
CGCUUUGCUCAGCCAGUGUAG [hsa-miR-1251-3p] | 76.2% | -13.1% | 18.6%
AGGUAGACUGGGAUUUGUUGUU [hsa-miR-3529-5p] | 21.7% | -26.7% | 27.4%
UCUUUUCUUUGAGACUCACU [hsa-miR-627-3p] | 34.1% | 21.8% | -15.6%
AGGUUCUGUGAUACACUCCGACU [hsa-miR-152-5p] | 22% | -38.1% | 65.8%
GGGGGCCGAUACACUGUACGAGA [hsa-miR-128-2-5p] | 91.1% | 34.6% | -25.2%
AGGUUGGGAUCGGUUGCAAUGCU [hsa-miR-92a-1-5p] | 17.4% | -34% | 4.93%
AGCCUGUGCUUGUCCCUGCAG [hsa-miR-6811-3p] | 11.8% | -10.2% | 24.6%
CAAGCUUGUAUCUAUAGGUAUG [hsa-miR-100-3p] | 77.2% | 19.2% | -5.48%
CCGGCCGCCGGCUCCGCCCCG [hsa-miR-1908-3p] | 96% | 44.4% | -14.6%
GCUGCACCGGAGACUGGGUAA [hsa-miR-3130-3p] | 65% | 26.7% | -5.32%
AAAGUGCUGCGACAUUUGAGCGU [hsa-miR-372] | 64.2% | 52.4% | -16.8%
AACAUUCAUUGCUGUCGGUGGGU [hsa-miR-181b-5p] | 93.5% | 10.9% | 1.83%
